# Test results from patent publication US20250353911A1 (INHIBRX BIOSCIENCES, published 2025).
# Changes are numbered by the printed parent chain.
# B1: cx12007 (B10a.v2.4 VHH x hz4A01v51.12 VHH) (bispecific antibody)
# chain: EVQLLESGGGKVQPGGSLRLSCAASGSIANVDLMAWHRQAPGKQREPIAVINDAGSTYYAESVKGRFTISRDNAKNTLYLQMNSLRAEDTAVYYCNTATWRGGERYADWGQGTLVTVEPGSGGGSEVQLLESGGGKVQPGGSLRLSCAASGFTFSTSGMVWVRQAPGKGLEWVSTISDDARITVYAESVKGRFTISRDNAKNTVYLQMNSLRAEDTAVYYCATYRAGSRIGSYEDYYRGQGTLVTVEPGG
# B2: cx12008 (bispecific antibody)
# single polypeptide, format of FIG. 5(i): B1 chain with K11E, E118R, L130V, K136E, E247R
# notes: anti-FcRn VHH linked to anti-albumin VHH
# B3: cx12006 (bispecific antibody)
# single polypeptide, format of FIG. 5(i): B1 chain with E1Q, E126Q
# notes: as for B2
# B4: 4A01v5 (Fc fusion, not shown: a dimerising Fc or GST; small tags and cut ends)
# VHH: EVQLVESGGGEVQPGGSLRLSCAASGFAFSTSGMVWVRQAPGKGLEWVSTISDEGRIIRYAESVKGRFTISRDNAKNTLYLQMNSLRAEDTAVYYCATYRAGSRIGSYEDYYRGQGTLVTVKP
# notes: also called Hz4A01v5
# B5: 4A01v8 (Fc fusion, not shown: a dimerising Fc or GST; small tags and cut ends)
# VHH: B4 VHH with E54N, G55A
# notes: also called Hz4A01v8
# B6: 4A01v6 (Fc fusion, not shown: a dimerising Fc or GST; small tags and cut ends)
# VHH: B4 VHH with E54S
# notes: also called Hz4A01v6
# B7: 4A01v4 (Fc fusion, not shown: a dimerising Fc or GST; small tags and cut ends)
# VHH: B4 VHH with G55S
# notes: also called Hz4A01v4
# B8: 4A01v3 (Fc fusion)
# VHH: B4 VHH with E54D, G55A
# notes: also called Hz4A01v3; not shown: Human Fc carrier and its linker
# B9: cx12032 (B10a.v2.1 VHH x hz4A01v51 VHH) (bispecific antibody)
# chain: EVQLLESGGGEVQPGGSLRLSCAASGSIANVDLMAWHRQAPGKQREPIAVINDAGSTYYAESVKGRFTISRDNAKNTLYLQMNSLRAEDTAVYYCNTATWRGGERYADWGQGTLVTVKPEVQLVESGGGEVQPGGSLRLSCAASGFTFSTSGMVWVRQAPGKGLEWVSTISDDARITVYAESVKGRFTISRDNAKNTVYLQMNSLRAEDTAVYYCATYRAGSRIGSYEDYYRGQGTLVTVKPGG
# B10: cx12003 (bispecific antibody)
# single polypeptide, format of FIG. 5(i): B1 chain with E1Q, K11E, E126Q, K136E
# notes: as for B2
# B11: 4A01v3-7 (Fc fusion)
# VHH: B4 VHH with E54D, G55A, L79V
# notes: also called Hz4A01v3-7; not shown: Human Fc carrier and its linker
# B12: 4A01v3-8 (Fc fusion)
# VHH: B4 VHH with E54D, G55A, R113W
# notes: also called Hz4A01v3-8; not shown: Human Fc carrier and its linker
# B13: 4A01v1 (Fc fusion)
# VHH: B4 VHH with E54D, G55S
# notes: also called Hz4A01v1; not shown: Human Fc carrier and its linker
# B14: 4A01v9 (Fc fusion, not shown: a dimerising Fc or GST; small tags and cut ends)
# VHH: B4 VHH with E54D, G55T
# notes: also called Hz4A01v9
# B15: 4A01v3-1 (Fc fusion, not shown: a dimerising Fc or GST; small tags and cut ends)
# VHH: B4 VHH with A28T, E54D, G55A
# notes: also called Hz4A01v3-1
# B16: 4A01v3-4 (Fc fusion)
# VHH: B4 VHH with V35S, E54D, G55A
# notes: also called Hz4A01v3-4; not shown: Human Fc carrier and its linker
# B17: 4A01v3-5 (Fc fusion)
# VHH: B4 VHH with V37Y, E54D, G55A
# notes: also called Hz4A01v3-5; not shown: Human Fc carrier and its linker
# B18: 4A01v3-3 (Fc fusion, not shown: a dimerising Fc or GST; small tags and cut ends)
# VHH: B4 VHH with V35A, E54D, G55A
# notes: also called Hz4A01v3-3
# B19: cx11383 (B10a.v1 VHH x hz4A01v51 VHH) (bispecific antibody)
# chain: EVQLLESGGGEVQPGGSLRLSCTASGSIANVDMMAWHRQAPGKQREPIAVINDGGSTSYADSVKGRFTISRDNAKNTLYLQMSSLRAEDTAVYYCNTATWRGGERYADWGQGTLVTVKPGSGGGSEVQLVESGGGEVQPGGSLRLSCAASGFTFSTSGMVWVRQAPGKGLEWVSTISDDARITVYAESVKGRFTISRDNAKNTVYLQMNSLRAEDTAVYYCATYRAGSRIGSYEDYYRGQGTLVTVKPGG
# Biological target: T1, Human serum albumin (HSA) (human, UniProt P02768 25-609)
# T1 construct: also called human albumin; recombinant human albumin
# T1 sequence (P02768 25-609): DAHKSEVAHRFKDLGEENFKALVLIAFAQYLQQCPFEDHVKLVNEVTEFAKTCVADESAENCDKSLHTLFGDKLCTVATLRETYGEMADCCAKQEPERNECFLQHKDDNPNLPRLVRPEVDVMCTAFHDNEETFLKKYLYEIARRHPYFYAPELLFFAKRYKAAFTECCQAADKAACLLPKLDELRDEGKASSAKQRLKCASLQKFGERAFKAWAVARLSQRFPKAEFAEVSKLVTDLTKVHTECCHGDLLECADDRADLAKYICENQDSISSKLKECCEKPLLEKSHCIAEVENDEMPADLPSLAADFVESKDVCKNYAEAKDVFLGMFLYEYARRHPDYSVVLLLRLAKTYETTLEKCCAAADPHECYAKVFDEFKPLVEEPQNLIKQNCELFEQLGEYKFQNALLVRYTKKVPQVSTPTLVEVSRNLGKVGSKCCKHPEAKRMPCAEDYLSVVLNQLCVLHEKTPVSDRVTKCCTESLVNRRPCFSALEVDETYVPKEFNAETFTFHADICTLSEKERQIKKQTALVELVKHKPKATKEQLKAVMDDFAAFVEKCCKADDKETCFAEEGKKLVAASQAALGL
# Assay: ELISA on coated human albumin, pH 5.5, HRP detection antibody, A450
# Description: (§1) 96-well ELISA plates were coated with albumin protein in PBS overnight at 4° C., washed with PBS-T and then blocked with 5% milk powder in PBS-T for 1 h at room temperature. Serial dilutions of test articles were prepared in PBS pH 7.4 or a buffer containing 20 mM His, 150 mM NaCl, pH 5.5 and added to the plates. Plates were incubated for 1 h at room temperature. After the incubation cells were washed in the respective buffer and then incubated for 30 min at room temperature with a HRP-conjugated antibody detecting the polypeptides. Plates were washed in their respective buffers and TMB substrate was added and color allowed to develop. TMB substrate was stopped with an equal volume of stop solution (1M H₂SO₄). Absorbance at 450 nm was measured with a 96 well plate reader.
row,Binder,EC50 (read off the curve) [nM]
1,B1,~0.4
2,B2,~0.4
3,B3,~0.4

# Biological target: T2, Murine serum albumin (MSA) (mouse, UniProt P07724 25-608)
# T2 construct: Bought protein (Sigma); also called murine albumin; mouse albumin
# Assay: ELISA on coated murine albumin, anti-human Fc HRP, A650, one site-total binding fit
# Description: (§2) Medisorp plates were coated with albumin protein at 2 μg/ml, 50 μl/well at 4° C. overnight (human, murine, and rat albumin-Sigma, cynomolgus monkey albumin-Abcam). 1× Fish Gelatin (blocking agent, Bethyl Laboratories) was added to albumin-coated wells followed by a 1 hour incubation at RT. Titrations of sdAb fusion proteins (starting at 100 nM, across 1:3 or down 1:4) were added and incubated for 1 hour at RT. Plates were washed 3 times with 0.1% D-PBST, and then anti-human Fc HRP antibody (1:2000 in 0.1% D-PBST, Jackson) was added and incubated for 30 minutes at RT. Plates were washed 3 times with 0.1% D-PBST, and then TMB substrate was added. Absorbance at 650 nm was read on a plate reader (Molecular Devices) and data were plotted using equation one site-total binding (Model: Y=Bmax*X/(Kd+X)+NS*X+Background, GraphPad Prism).
Binder,Bmax [A650],Kd [nM]
B4,1.09,0.189
B5,1.1,0.226
B6,1.09,0.206
B7,1.1,0.25

# Biological target: T3, Cynomolgus monkey serum albumin (CSA) (cynomolgus monkey, UniProt A2V9Z4 25-608)
# T3 construct: Bought protein (Abcam); also called cynomolgus monkey albumin
# T3 sequence (A2V9Z4 25-608): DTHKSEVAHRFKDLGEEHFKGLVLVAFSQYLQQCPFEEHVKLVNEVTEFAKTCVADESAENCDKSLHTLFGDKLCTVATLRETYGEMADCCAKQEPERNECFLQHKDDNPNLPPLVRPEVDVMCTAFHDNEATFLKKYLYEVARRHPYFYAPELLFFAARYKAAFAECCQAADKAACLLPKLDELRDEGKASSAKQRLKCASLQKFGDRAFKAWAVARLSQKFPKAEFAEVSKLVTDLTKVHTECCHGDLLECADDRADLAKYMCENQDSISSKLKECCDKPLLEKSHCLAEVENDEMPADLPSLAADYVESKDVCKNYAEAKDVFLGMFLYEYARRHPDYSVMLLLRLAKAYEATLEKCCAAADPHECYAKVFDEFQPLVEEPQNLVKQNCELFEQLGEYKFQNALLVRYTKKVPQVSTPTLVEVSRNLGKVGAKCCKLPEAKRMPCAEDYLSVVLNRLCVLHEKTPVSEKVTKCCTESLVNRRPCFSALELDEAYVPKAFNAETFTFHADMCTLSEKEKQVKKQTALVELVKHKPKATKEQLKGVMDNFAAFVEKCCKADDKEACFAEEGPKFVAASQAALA
# Assay: ELISA on coated cynomolgus monkey albumin, anti-human Fc HRP, A650, one site-total binding fit
# Description: as §2
Binder,Bmax [A650],Kd [nM]
B8,0.994,0.338
B4,0.939,0.203
B6,0.961,0.225
B7,0.954,0.247

# Biological target: T4, Rat serum albumin (RSA) (rat, UniProt P02770 25-608)
# T4 construct: Bought protein (Sigma); also called rat albumin
# T4 sequence (P02770 25-608): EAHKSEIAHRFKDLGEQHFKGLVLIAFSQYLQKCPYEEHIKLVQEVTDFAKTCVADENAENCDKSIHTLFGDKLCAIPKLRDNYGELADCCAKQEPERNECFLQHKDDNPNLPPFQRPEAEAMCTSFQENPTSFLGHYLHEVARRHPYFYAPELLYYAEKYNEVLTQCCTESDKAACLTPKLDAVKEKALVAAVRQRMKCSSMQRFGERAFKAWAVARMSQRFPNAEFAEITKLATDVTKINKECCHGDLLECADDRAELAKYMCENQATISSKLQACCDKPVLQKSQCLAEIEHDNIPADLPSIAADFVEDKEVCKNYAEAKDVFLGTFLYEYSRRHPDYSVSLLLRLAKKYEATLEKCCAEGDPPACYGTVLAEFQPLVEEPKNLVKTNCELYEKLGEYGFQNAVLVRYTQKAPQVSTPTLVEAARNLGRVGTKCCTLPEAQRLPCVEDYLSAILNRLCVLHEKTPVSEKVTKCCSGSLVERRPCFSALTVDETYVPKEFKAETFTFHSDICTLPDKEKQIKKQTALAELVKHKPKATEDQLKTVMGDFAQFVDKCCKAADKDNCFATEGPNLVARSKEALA
# Assay: ELISA on coated rat albumin, anti-human Fc HRP, A650, one site-total binding fit
# Description: as §2
Binder,Bmax [A650],Kd [nM]
B4,1,0.26
B5,1.01,0.328
B6,1.02,0.273
B7,0.972,0.32

# Biological target: T5, human FcRn extracellular domain (ECD) fused to a transmembrane domain and an intracellular citrine, with … (human)
# T5 construct: also called human FcRn overexpressed on CHO cells; FcRn transfected CHO cells
# T5 sequence (chain, as listed by the source limits assumed, chain 1 of 2): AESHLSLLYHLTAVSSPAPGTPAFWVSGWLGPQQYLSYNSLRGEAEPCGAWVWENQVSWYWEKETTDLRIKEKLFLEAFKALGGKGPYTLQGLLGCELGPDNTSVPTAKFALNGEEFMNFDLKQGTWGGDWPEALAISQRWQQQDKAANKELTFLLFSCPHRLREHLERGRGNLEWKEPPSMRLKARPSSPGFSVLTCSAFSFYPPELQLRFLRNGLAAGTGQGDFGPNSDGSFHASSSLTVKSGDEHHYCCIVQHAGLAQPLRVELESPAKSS
# T5 sequence (b2m, as listed by the source limits assumed, chain 2 of 2): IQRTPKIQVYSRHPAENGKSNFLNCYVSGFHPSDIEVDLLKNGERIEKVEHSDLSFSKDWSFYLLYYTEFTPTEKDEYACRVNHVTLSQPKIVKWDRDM
# Assay: flow cytometry, CHO cells transiently expressing human FcRn ECD-TM-citrine and B2M, pH 7.4, AF647 detection antibody
# Description: (§3) Binding of anti-FcRn VHH polypeptides to human FcRn at neutral (7.4) or endosomal (6) pH was tested by flow cytometry using a CHO-based overexpression system or isolated human peripheral blood mononuclear cells (PBMC).
# (§4) CHO cells were plated in 96-well plates at 50,000 cells per well and resuspended in PBS, pH 7.4 or a buffer containing 20 mM His, 150 mM NaCl, pH 6. Serial dilutions of test articles were prepared at 2× the final concentration in the buffers described above (pH 7.4 or pH 6) and added to the cell suspensions. Plates were incubated for 60 minutes at 4° C. After the incubation cells were washed in the respective buffer and then incubated for 30 minutes at 4° C. with a fluorescently labeled (AF647) antibody detecting the VHH polypeptides. Binding of the detection antibody to FcRn on transfected cells (citrine positive) was measured after a final wash using an iQue Screener (Sartorius).
row,Binder,EC50 (read off the curve) [nM]
1,B9,~0.5

# Biological target: T1, Human serum albumin (HSA)
# Assay: ELISA on coated human albumin, pH 7.4, HRP detection antibody, A450
# Description: as §1
row,Binder,EC50 (read off the curve) [nM]
1,B9,~0.3

# Biological target: T5, human FcRn extracellular domain (ECD) …
# Assay: flow cytometry, CHO cells transiently expressing human FcRn ECD-TM-citrine and B2M, pH 6, AF647 detection antibody
# Description: as §3, §4
row,Binder,EC50 (read off the curve) [nM]
1,B1,~0.4
2,B10,~0.5
3,B2,~0.4
4,B3,~0.4

# Biological target: T2, Murine serum albumin (MSA)
# Assay: ELISA on coated murine albumin, anti-human Fc HRP, A650, one site-total binding fit
# Remark: another data set of the same source
# Description: as §2
Binder,Kd [nM],Bmax [A650]
B8,0.121,
B11,0.111,1.32
B12,0.143,
B13,0.129,1.35
B14,0.112,1.3
B15,0.109,1.29
B16,0.241,1.4
B17,0.112,1.31
B18,0.142,1.35

# Biological target: T1, Human serum albumin (HSA)
# Assay: ELISA on coated human albumin, anti-human Fc HRP, A650, one site-total binding fit
# Description: as §2
Binder,Bmax [A650],Kd [nM]
B4,0.957,0.276
B5,0.955,0.428
B6,0.94,0.332
B7,0.947,0.378

# Biological target: T5, human FcRn extracellular domain (ECD) …
# Assay: flow cytometry, CHO cells transiently expressing human FcRn ECD-TM-citrine and B2M, pH 6, AF647 detection antibody
# Remark: another data set of the same source
# Description: as §3, §4
row,Binder,EC50 (read off the curve) [nM]
1,B9,~0.6

# Biological target: T1, Human serum albumin (HSA)
# Assay: ELISA on coated human albumin, anti-human Fc HRP, A650, one site-total binding fit
# Remark: another data set of the same source
# Description: as §2
Binder,Kd [nM],Bmax [A650]
B8,0.124,
B11,0.121,1.4
B12,0.136,
B13,0.139,1.34
B14,0.115,1.35
B15,0.123,1.32
B16,0.151,1.43
B17,0.121,1.39
B18,0.129,1.36

# Biological target: T5, human FcRn extracellular domain (ECD) …
# Assay: flow cytometry, HEK 293 cells transiently expressing human FcRn ECD-TM-citrine and B2M, pH 6; blocked ligand: biotinylated human IgG at 1 µM, detected with streptavidin-AF647
# Description: 50,000 transiently transfected HEK 293 cells were plated in 96-well plates and resuspended in 20 mM His, 150 mM NaCl, pH 6. Serial dilutions of test articles were prepared at 2× the final concentration in the buffer described above and added to the cell suspensions. Plates were incubated for 60 minutes at 4° C. […] Cells were then washed in the buffer described above and subsequently incubated for 30 minutes at 4° C. with a fluorescently labeled (AF647) streptavidin to detect IgG binding to FcRn. Binding of streptavidin to cells expressing FcRn (citrine positive) was measured after a final wash using an iQue Screener (Sartorius). The data were plotted and analyzed using GraphPad Prism analysis software.
row,Binder,IC50 (read off the curve) [nM]
1,B19,~7

# Biological target: T6, human FcRn/B2m heterodimer protein (human, UniProt P55899 24-297; P61769 21-119, limits assumed)
# T6 construct: also called FcRn (ELISA)
# T6 sequence (P55899 24-297 limits assumed, chain 1 of 2): as the sequence (chain, as listed by the source limits assumed, chain 1 of 2) above
# T6 sequence (P61769 21-119 limits assumed, chain 2 of 2): as the sequence (b2m, as listed by the source limits assumed, chain 2 of 2) above
# Assay: ELISA on coated human FcRn/B2m heterodimer, pH 7.4, HRP detection antibody, A450
# Description: 96-well ELISA plates were coated with human FcRn/B2m heterodimer protein in PBS overnight at 4° C., washed with PBST and then blocked with 3% BSA in PBST for 1 h at RT. Serial dilutions of test articles were prepared in PBST pH 7.4 and added to the plates. Plates were incubated for 1 h at room temperature. After the incubation cells were washed in the PBST and then incubated for 1 h at room temperature with a horse radish peroxidase (HRP)-conjugated antibody detecting the polypeptides. Plates were washed with PBS-T followed by addition of TMB substrate and color allowed to develop. TMB substrate was stopped with an equal volume of stop solution (1M H₂SO₄). Absorbance at 450 nm was measured with a 96 well plate reader (Emax, Molecular Devices). All data were plotted and analyzed using GraphPad Prism analysis software.
row,Binder,binding result
1,B19,binds

# Biological target: T3, Cynomolgus monkey serum albumin (CSA)
# Assay: ELISA on coated cynomolgus monkey albumin, anti-human Fc HRP, A650, one site-total binding fit
# Remark: another data set of the same source
# Description: as §2
Binder,Bmax [A650],Kd [nM]
B11,1.31,0.118
B12,1.35,0.147
B13,1.31,0.157
B14,1.29,0.117
B15,1.29,0.127
B16,1.37,0.181
B17,1.34,0.126
B18,1.35,0.142

# Biological target: T1, Human serum albumin (HSA)
# Assay: ELISA on coated human albumin, pH 7.4, HRP detection antibody, A450
# Remark: another data set of the same source
# Description: as §1
row,Binder,EC50 (read off the curve) [nM]
1,B1,~0.4
2,B10,~0.4
3,B2,~0.4
4,B3,~0.4

# Biological target: T4, Rat serum albumin (RSA)
# Assay: ELISA on coated rat albumin, anti-human Fc HRP, A650, one site-total binding fit
# Remark: another data set of the same source
# Description: as §2
Binder,Kd [nM],Bmax [A650]
B8,0.162,
B11,0.123,1.35
B12,0.169,
B13,0.184,1.28
B14,0.144,1.27
B15,0.13,1.28
B16,0.252,1.41
B17,0.162,1.35
B18,0.152,1.32

# Biological target: T5, human FcRn extracellular domain (ECD) …
# Assay: flow cytometry, CHO cells transiently expressing human FcRn ECD-TM-citrine and B2M, pH 7.4, AF647 detection antibody
# Remark: another data set of the same source
# Description: as §3, §4
row,Binder,EC50 (read off the curve) [nM]
1,B1,~0.3
2,B10,~0.3
3,B2,~0.7
4,B3,~0.3
